PMC3919604, “Single-molecule characterization of Fen1 and Fen1/PCNA complexes acting on flap substrates” (Nucleic Acids Research, 2013)
Each block holds one molecule with its values, some of them ahead of it.

Columns and labels:
[1] = test system: Fen1 (flap endonuclease 1);PCNA heterotrimer (PCNA1/PCNA2/PCNA3) (Sulfolobus solfataricus;Sulfolobus solfataricus); experiment: FRET titration; details: Fen1 titrated with 2 uM PCNA, 10 mM Ca2+; 10 mM Ca2+ (prevents cleavage), 20 C / room temperature; binding buffer, salt and pH not in held text (hybridization buffer 20 mM Tris-HCl pH 7.8, 25 mM NaCl)
[2] = test system: Fen1 (flap endonuclease 1) (Sulfolobus solfataricus); experiment: FRET titration; details: 10 mM Ca2+, no PCNA; 10 mM Ca2+ (prevents cleavage), 20 C / room temperature; binding buffer, salt and pH not in held text (hybridization buffer 20 mM Tris-HCl pH 7.8, 25 mM NaCl)
[3] = molecular target: Fen1 (Saccharolobus solfataricus) (UniProt Q980U8); details: cited from earlier work
[4] = test system: Fen1 (flap endonuclease 1);PCNA heterotrimer (PCNA1/PCNA2/PCNA3) (Sulfolobus solfataricus;Sulfolobus solfataricus); experiment: ensemble FRET; details: Fen1 titrated with 2 uM PCNA, 10 mM Ca2+, 20 C; 10 mM Ca2+ (prevents cleavage), 20 C / room temperature; binding buffer, salt and pH not in held text (hybridization buffer 20 mM Tris-HCl pH 7.8, 25 mM NaCl)
[5] = test system: Fen1 (flap endonuclease 1) (Sulfolobus solfataricus); experiment: ensemble FRET; details: 10 mM Ca2+, no PCNA, 20 C; 10 mM Ca2+ (prevents cleavage), 20 C / room temperature; binding buffer, salt and pH not in held text (hybridization buffer 20 mM Tris-HCl pH 7.8, 25 mM NaCl)
[6] = test system: Fen1 (flap endonuclease 1);PCNA12 heterodimer (PCNA1/PCNA2) (Sulfolobus solfataricus;Sulfolobus solfataricus); experiment: PIFE (Cy3); details: PCNA12 titrated with 5 uM Fen1, 10 mM Ca2+; 10 mM Ca2+ (prevents cleavage), 20 C / room temperature; binding buffer, salt and pH not in held text (hybridization buffer 20 mM Tris-HCl pH 7.8, 25 mM NaCl)
[7] = test system: Fen1 (flap endonuclease 1);PCNA heterotrimer (PCNA1/PCNA2/PCNA3) (Sulfolobus solfataricus;Sulfolobus solfataricus); experiment: PIFE (Cy3); details: PCNA titrated with 5 uM Fen1, 10 mM Ca2+; 10 mM Ca2+ (prevents cleavage), 20 C / room temperature; binding buffer, salt and pH not in held text (hybridization buffer 20 mM Tris-HCl pH 7.8, 25 mM NaCl)
[8] = test system: Fen1 (flap endonuclease 1);PCNA-Cy5 heterotrimer (Sulfolobus solfataricus;Sulfolobus solfataricus); experiment: intermolecular FRET; details: PCNA-Cy5 titrated with 5 uM Fen1; substrate of the Kd fit not explicitly stated; 10 mM Ca2+ (prevents cleavage), 20 C / room temperature; binding buffer, salt and pH not in held text (hybridization buffer 20 mM Tris-HCl pH 7.8, 25 mM NaCl)
[9] = test system: Fen1 (flap endonuclease 1);PCNA heterotrimer (PCNA1/PCNA2/PCNA3) (Sulfolobus solfataricus;Sulfolobus solfataricus); experiment: smFRET; details: Fen1 titrated with 2 uM PCNA, 10 mM Ca2+; 10 mM Ca2+ (prevents cleavage), 20 C / room temperature; binding buffer, salt and pH not in held text (hybridization buffer 20 mM Tris-HCl pH 7.8, 25 mM NaCl)
[10] = test system: Fen1 (flap endonuclease 1) (Sulfolobus solfataricus); experiment: smFRET; details: 10 mM Ca2+, no PCNA; 10 mM Ca2+ (prevents cleavage), 20 C / room temperature; binding buffer, salt and pH not in held text (hybridization buffer 20 mM Tris-HCl pH 7.8, 25 mM NaCl)
[11] = molecular target: T1, Sulfolobus solfataricus PCNA heterotrimer (PCNA1, PCNA2, PCNA3) (Sulfolobus solfataricus, UniProt P57766 1-249; Q97Z84 1-245; P57765 1-244); experiment: other fluorescence titration; protein-induced fluorescence enhancement (PIFE) of Cy3 on the 3F-duplex of a double-flap DNA; PCNA or PCNA12 titrated into DNA pre-incubated with 5 uM Fen1, 10 mM Ca2+; 30 mM HEPES pH 7.6, 40 mM KCl, 5% glycerol, 0.1 mg/ml BSA, 20 C; details: both partners purified
T1 construct: PCNA1 subunit of the heterotrimeric PCNA, Sulfolobus solfataricus; PCNA2 subunit of the heterotrimeric PCNA, Sulfolobus solfataricus; PCNA3 subunit of the heterotrimeric PCNA, Sulfolobus solfataricus; also called heterotrimeric PCNA; sliding clamp; copies: + +
T1 sequence (looked up) 1: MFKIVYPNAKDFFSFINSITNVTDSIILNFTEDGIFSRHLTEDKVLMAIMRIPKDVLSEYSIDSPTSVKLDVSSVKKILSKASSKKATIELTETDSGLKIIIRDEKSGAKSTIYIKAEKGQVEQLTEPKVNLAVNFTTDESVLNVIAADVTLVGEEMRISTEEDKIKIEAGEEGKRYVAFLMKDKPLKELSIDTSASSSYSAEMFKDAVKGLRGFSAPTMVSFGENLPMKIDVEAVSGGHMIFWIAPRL
T1 sequence (looked up) 2: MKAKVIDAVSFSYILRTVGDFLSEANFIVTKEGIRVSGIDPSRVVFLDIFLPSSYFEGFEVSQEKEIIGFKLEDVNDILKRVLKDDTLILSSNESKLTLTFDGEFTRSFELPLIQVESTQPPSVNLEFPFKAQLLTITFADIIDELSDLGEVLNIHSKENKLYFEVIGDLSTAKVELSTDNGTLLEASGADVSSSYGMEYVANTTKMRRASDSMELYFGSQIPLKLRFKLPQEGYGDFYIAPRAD
T1 sequence (looked up) 3: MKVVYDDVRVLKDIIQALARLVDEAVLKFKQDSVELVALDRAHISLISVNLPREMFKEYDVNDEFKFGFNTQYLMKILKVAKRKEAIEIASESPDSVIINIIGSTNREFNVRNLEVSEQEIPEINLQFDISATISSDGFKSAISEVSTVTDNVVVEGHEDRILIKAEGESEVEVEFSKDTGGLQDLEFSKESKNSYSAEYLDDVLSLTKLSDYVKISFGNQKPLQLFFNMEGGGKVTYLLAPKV

[12] = molecular target: T2, Sulfolobus solfataricus PCNA1-PCNA2 heterodimer (PCNA12) (Sulfolobus solfataricus, UniProt P57766 1-249; Q97Z84 1-245); experiment: as above; details: both partners purified
T2 construct: PCNA1 subunit, Sulfolobus solfataricus; PCNA2 subunit, Sulfolobus solfataricus; also called PCNA12 complex
T2 sequence (looked up) 1: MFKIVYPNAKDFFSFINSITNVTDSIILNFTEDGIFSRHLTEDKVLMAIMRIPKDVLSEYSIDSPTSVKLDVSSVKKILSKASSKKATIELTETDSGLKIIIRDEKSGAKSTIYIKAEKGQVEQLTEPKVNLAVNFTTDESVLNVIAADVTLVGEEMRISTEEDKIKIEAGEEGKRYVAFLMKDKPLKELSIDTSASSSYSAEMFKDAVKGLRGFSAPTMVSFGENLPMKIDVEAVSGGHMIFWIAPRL
T2 sequence (looked up) 2: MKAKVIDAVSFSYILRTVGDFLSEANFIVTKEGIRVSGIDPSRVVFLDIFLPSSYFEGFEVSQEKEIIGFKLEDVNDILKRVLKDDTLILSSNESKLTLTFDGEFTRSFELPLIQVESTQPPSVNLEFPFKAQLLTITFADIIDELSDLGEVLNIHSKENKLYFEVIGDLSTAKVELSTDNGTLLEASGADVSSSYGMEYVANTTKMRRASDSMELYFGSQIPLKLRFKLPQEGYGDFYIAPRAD

[13] = molecular target: T3, Cy5 acceptor-labelled Sulfolobus solfataricus PCNA heterotrimer (PCNA1 N131C-Cy5, PCNA2, PCNA3) (Sulfolobus solfataricus, UniProt P57766 1-249; Q97Z84 1-245; P57765 1-244, N131C, Cy5-maleimide on the single cysteine of N131C); experiment: FRET or BRET; ensemble inter-molecular FRET between Cy3-labelled double-flap DNA and Cy5-labelled PCNA; PCNA-Cy5 titrated, DNA pre-equilibrated with 5 uM Fen1; details: both partners purified
T3 construct: PCNA1 subunit, Sulfolobus solfataricus, with the point mutation N131C; PCNA2 subunit, Sulfolobus solfataricus, unlabelled; PCNA3 subunit, Sulfolobus solfataricus, unlabelled; Labelling yield about 80%; also called PCNA-Cy5; acceptor-labelled PCNA; copies: + +
T3 sequence (looked up) 1: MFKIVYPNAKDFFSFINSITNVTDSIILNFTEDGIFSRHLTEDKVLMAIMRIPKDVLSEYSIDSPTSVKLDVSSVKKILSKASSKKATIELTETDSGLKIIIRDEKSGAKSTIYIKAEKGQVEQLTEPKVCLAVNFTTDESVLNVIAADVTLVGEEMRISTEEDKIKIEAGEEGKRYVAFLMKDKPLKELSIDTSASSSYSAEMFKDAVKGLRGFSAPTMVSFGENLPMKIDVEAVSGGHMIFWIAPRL
T3 sequence (looked up) 2: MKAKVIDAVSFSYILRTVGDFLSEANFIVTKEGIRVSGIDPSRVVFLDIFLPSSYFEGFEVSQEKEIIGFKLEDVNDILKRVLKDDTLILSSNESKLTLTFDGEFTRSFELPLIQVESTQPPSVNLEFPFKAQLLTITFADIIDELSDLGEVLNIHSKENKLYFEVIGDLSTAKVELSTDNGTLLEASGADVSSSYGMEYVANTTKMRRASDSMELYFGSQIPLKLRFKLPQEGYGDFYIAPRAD
T3 sequence (looked up) 3: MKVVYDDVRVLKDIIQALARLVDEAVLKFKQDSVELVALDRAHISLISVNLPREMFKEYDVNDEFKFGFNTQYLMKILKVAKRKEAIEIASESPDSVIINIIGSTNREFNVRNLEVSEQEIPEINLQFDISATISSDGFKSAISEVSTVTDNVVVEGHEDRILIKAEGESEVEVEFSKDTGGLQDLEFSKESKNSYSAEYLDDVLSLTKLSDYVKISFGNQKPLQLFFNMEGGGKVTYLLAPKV

Molecule: 5'-flap substrate lacking the 3' extrahelical nucleotide
- Kd [1]: 700 nM
- Kd [2]: > 10 µM

Molecule: PCNA (from UniProt P57766)
- Kd [3]: 210 nM

Molecule: Flap-12/23/13 double flap (global fit of three labelled versions)
- Kd [4]: 3 nM
- Kd [5]: 14 nM

Molecule: Double flap, Cy3 in 3F-duplex
- Kd [6]: 360 nM
- Kd [7]: 160 nM
- Kd [8]: 117 nM

Molecule: Flap-23 double flap, single-molecule, Cy3/Cy5, biotin
- Kd [9]: 1.6 nM
- Kd [10]: 23 nM

- Kd [11]: 160 ± 14 nM
- Kd [12]: 360 ± 30 nM
- Kd [13]: 117 ± 34 nM
B1: Sulfolobus solfataricus Flap endonuclease 1 (Fen1) (enzyme, UniProt Q980U8 1-349, looked up)
chain: MDLADLVKDVKRELSFSELKGKRVSIDGYNALYQFLAAIRQPDGTPLMDSQGRVTSHLSGLFYRTINILEEGVIPIYVFDGKPPEQKSEELERRRKAKEEAERKLERAKSEGKIEELRKYSQAILRLSNIMVEESKKLLRAMGIPIVQAPSEGEAEAAYLNKLGLSWAAASQDYDAILFGAKRLVRNLTITGKRKLPNKDVYVEIKPELIETEILLKKLGITREQLIDIGILIGTDYNPDGIRGIGPERALKIIKKYGKIEKAMEYGEISKKDINFNIDEIRGLFLNPQVVKPEEALDLNEPNGEDIINILVYEHNFSEERVKNGIERLTKAIKEAKGASRQTGLDRWF
notes: Flap endonuclease 1 (Fen1), Sulfolobus solfataricus
